# From patent publication US20240034813A1 (Janssen / Centocor, published 2024)
# B1: amivantamab (bispecific antibody, human IgG1, kappa)
# heavy 1: not shown
# light 1: not shown
# heavy 2: not shown
# light 2: DIQMTQSPSSVSASVGDRVTITCRASQGISNWLAWFQHKPGKAPKLLIYAASSLLSGVPSRFSGSGSGTDFTLTISSLQPEDFATYYCQQANSFPITFGQGTRLEIKRTVAAPSVFIFPPSDEQLKSGTASVVCLLNNFYPREAKVQWKVDNALQSGNSQESVTEQDSKDSTYSLSSTLTLSKADYEKHKVYACEVTHQGLSSPVTKSFNRGEC
# notes: The samples tested were high concentration (160 mg/mL) formulations, fresh or stored or stressed; also called JNJ-61186372; bispecific EGFR-cMet antibody
# Legend:
# [1] = target: T1, recombinant human EGFR/ErbB1/HER1 with C-terminal His tag, Cy5-labeled (human, UniProt P00533 25-645, Cy5 label (reacted with Cy5 Mono NHS Ester; sites not stated)); assay: competitive TR-FRET (Eu-amivantamab/Cy5-EGFR), EC50 ratio vs Reference Material; Ex. 11 drug product, 5 months at 5 C
# T1 construct: Commercial protein; also called Cy5-EGFR; Cy5-labeled EGFR antigen; not shown: C-terminal His tag
# Excerpt: (§1) In this procedure, varying concentrations of unlabeled bispecific EGFR-cMet antibody sample compete with donor fluorophore (Europium (Eu) chelate) labeled bispecific EGFR-cMet antibody for binding to an acceptor fluorophore (Cy5)-labeled EGFR antigen. Excitation of the donor fluorophore results in a transfer of energy to the bound acceptor fluorophore (FRET process). The resultant FRET is detected by emission of light at 665 nm using a microplate reader capable of measuring time-resolved fluorescence. Sample dose response curves are compared to the RM.
# (§2) EGFR Binding Materials and Methods. Certified commercial EGFR, a recombinant human EGFR/ErbB1/HER1 with C-terminal His tag is reacted with certified commercial Cy5 Mono NHS Ester to produce Cy5-labeled EGFR. Validated bispecific EGFR-cMet antibody is reacted with certified commercial Europium (Eu) chelate to produce Eu-labeled bispecific EGFR-cMet antibody. […] Fluorescence is then measured by spectrophotometry at 665 nm, plotted against antibody concentration and analyzed by a four-parameter logistic model. The antibody concentration required to obtain half of the maximum fluorescence response (EC50) is determined for RM, assay control and samples. The potencies of assay control and samples are calculated based on the ratio of the sample (or control) and RM EC50 values and reported as a percentage activity relative to the RM.
# [2] = target: T2, recombinant cMet/HGFR with c-terminal His-tag, Cy5-labeled (UniProt P08581 25-932, limits assumed, Cy5 label (reacted with Cy5 Mono NHS Ester; sites not stated)); assay: competitive TR-FRET (Eu-amivantamab/Cy5-c-MET), EC50 ratio vs Reference Material; Ex. 11 drug product, 3 months at 40 C
# T2 construct: Commercial protein; also called Cy5-c-MET; Cy5-labeled c-MET antigen; not shown: C-terminal His-tag
# Excerpt: as §1, with “(Cy5)-labeled c-MET” for “(Cy5)-labeled EGFR”, “the Reference Material (RM).” for “the RM.”
# as §2, with “c-MET Binding” for “EGFR Binding”, “commercial cMet,” for “commercial EGFR,”, “recombinant cMet/HGFR” for “recombinant human EGFR/ErbB1/HER1”, “with c-terminal His-tag” for “with C-terminal His tag”, “Cy5-labeled c-MET.” for “Cy5-labeled EGFR.”, “produce Eu labeled” for “produce Eu-labeled”
# [3] = target: T1, recombinant human EGFR/ErbB1/HER1 with …; assay: competitive TR-FRET (Eu-amivantamab/Cy5-EGFR), EC50 ratio vs Reference Material; Ex. 2 Formulation 3 (acetate), 3 months at 25 C
# Excerpt: as §1, §2
# [4] = target: T2, recombinant cMet/HGFR with c-terminal …; assay: competitive TR-FRET (Eu-amivantamab/Cy5-c-MET), EC50 ratio vs Reference Material; Ex. 12 drug product with rHuPH20, 12 months at 5 C
# Excerpt: as §1, with “(Cy5)-labeled c-MET” for “(Cy5)-labeled EGFR”, “the Reference Material (RM).” for “the RM.”
# as §2, with “c-MET Binding” for “EGFR Binding”, “commercial cMet,” for “commercial EGFR,”, “recombinant cMet/HGFR” for “recombinant human EGFR/ErbB1/HER1”, “with c-terminal His-tag” for “with C-terminal His tag”, “Cy5-labeled c-MET.” for “Cy5-labeled EGFR.”, “produce Eu labeled” for “produce Eu-labeled”
# [5] = target: T1, recombinant human EGFR/ErbB1/HER1 with …; assay: competitive TR-FRET (Eu-amivantamab/Cy5-EGFR), EC50 ratio vs Reference Material; Ex. 2 Formulation 1 (10 mM histidine), T0, 5 C table
# Excerpt: as §1, §2
# [6] = target: T1, recombinant human EGFR/ErbB1/HER1 with …; assay: competitive TR-FRET (Eu-amivantamab/Cy5-EGFR), EC50 ratio vs Reference Material; Ex. 2 Formulation 2 (50 mM histidine), 1 month at 40 C
# Excerpt: as §1, §2
# [7] = target: T1, recombinant human EGFR/ErbB1/HER1 with …; assay: competitive TR-FRET (Eu-amivantamab/Cy5-EGFR), EC50 ratio vs Reference Material; Ex. 12 drug product with rHuPH20, 0 months, 25 C table
# Excerpt: as §1, §2
# [8] = target: T2, recombinant cMet/HGFR with c-terminal …; assay: competitive TR-FRET (Eu-amivantamab/Cy5-c-MET), EC50 ratio vs Reference Material; Ex. 2 Formulation 2 (50 mM histidine), 1 month at 40 C
# Excerpt: as §1, with “(Cy5)-labeled c-MET” for “(Cy5)-labeled EGFR”, “the Reference Material (RM).” for “the RM.”
# as §2, with “c-MET Binding” for “EGFR Binding”, “commercial cMet,” for “commercial EGFR,”, “recombinant cMet/HGFR” for “recombinant human EGFR/ErbB1/HER1”, “with c-terminal His-tag” for “with C-terminal His tag”, “Cy5-labeled c-MET.” for “Cy5-labeled EGFR.”, “produce Eu labeled” for “produce Eu-labeled”
binder,measurement,setting,value
B1,EGFR Binding activity relative to Reference Material (%),[1],85%
same,cMET Binding activity relative to Reference Material (%),[2],78%
same,EGFR Binding % activity relative to RM,[3],92%
same,cMET Binding activity relative to Reference Material (%),[4],97%
same,EGFR Binding % activity relative to RM,[5],103%
same,EGFR Binding % activity relative to RM,[6],68%
same,EGFR Binding activity relative to Reference Material (%),[7],92%
same,cMET Binding % activity relative to RM,[8],90%
